Measurements: patent US20210308260A1

Target: OVA-specific T-cell antigen receptor of OT1 transgenic mice (mouse)
Assay: flow cytometry, OVA tetramer staining of peripheral blood CD8+ T cells of OT1 mice

proportion of CD8+ T cells specifically recognized by OVA (tetramer-positive): 95.3%
Substance: OVA tetramer (peptide-MHC)
